One molecule from patent US20020055467A1 (Biogen, published 2002) can be followed below.

This test has as its target T1, fusion protein between the extracellular domain of rat RET and placental alkaline phosphatase (rat, UniProt G3V9H8 24-637).
T1 construct: extracellular domain; Used as conditioned medium from 293 EBNA cells; Construct described in Sanicola et al. 1997; also called RET-AP
Description: ternary complex assay without ligand (parental CHO medium or straight medium). The procedure: Dynex Microlite-1 ELISA plates (Dynex Technologies) were coated with 1 μg/ml goat antibody specific for human Fc in 50 mM bicarbonate/carbonate, pH 9.6 for 16 hr. The plates were emptied and filled with 300 μl of 1% I-block (Tropix) in TBS/0.5% Tween-20 (TBST), for 1 hr. After washing three times with TBST the wells were filled with 100 μl of 1 μg/ml rGFRα1-Ig or mGFRα3-Ig diluted in conditioned media from 293 EBNA cells expressing the RET-AP fusion gene. 100 ul of conditioned media from the CHO neublastin clones was then added to the top well of a column of wells, and 2 fold serial dilutions were performed down each row of wells, and incubated for 1.5 hr at room temperature. The plates were then washed three times with TBST, and twice with 200 mM Tris pH9.8, 10 mM MgCl₂ (CSPD buffer). The wash solution was then replaced with 425 μM CSPD (Tropix) in CSPD buffer containing 1 mg/ml Sapphire chemiluminescence enhancer (Tropix), and incubated for 30′ at room temperature. The chemiluminescent output was measured using a Dynatech luminometer.
The initial experiments investigated whether neublastin produced by the CHO cell lines could mediate the binding of GFRα1 or GFRα3 to the extracellular domain of RET.

T1 sequence (G3V9H8 24-637): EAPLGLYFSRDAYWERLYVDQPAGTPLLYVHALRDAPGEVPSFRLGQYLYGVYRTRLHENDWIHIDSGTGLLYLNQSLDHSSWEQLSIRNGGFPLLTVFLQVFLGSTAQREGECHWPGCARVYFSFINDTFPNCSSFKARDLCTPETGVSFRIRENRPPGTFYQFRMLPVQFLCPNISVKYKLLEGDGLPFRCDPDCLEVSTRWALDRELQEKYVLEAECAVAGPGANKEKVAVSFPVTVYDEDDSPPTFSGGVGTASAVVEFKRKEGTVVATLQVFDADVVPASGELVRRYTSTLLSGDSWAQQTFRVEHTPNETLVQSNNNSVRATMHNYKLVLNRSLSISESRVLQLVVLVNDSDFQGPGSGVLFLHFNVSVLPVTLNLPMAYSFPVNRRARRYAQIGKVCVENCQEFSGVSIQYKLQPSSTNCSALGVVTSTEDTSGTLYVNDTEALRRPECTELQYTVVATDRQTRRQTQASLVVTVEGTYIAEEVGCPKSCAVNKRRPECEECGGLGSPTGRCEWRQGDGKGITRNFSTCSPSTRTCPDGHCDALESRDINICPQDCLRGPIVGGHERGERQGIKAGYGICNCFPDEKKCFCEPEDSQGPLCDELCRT

B1: fusion protein between the extracellular domain of rat GFRα1 and the Fc domain of human IgG1 (Fc fusion, UniProt Q62997 25-430, looked up, not shown: a dimerising Fc or GST)
chain: DRLDCVKASDQCLKEQSCSTKYRTLRQCVAGKETNFSLTSGLEAKDECRSAMEALKQKSLYNCRCKRGMKKEKNCLRIYWSMYQSLQGNDLLEDSPYEPVNSRLSDIFRAVPFISDVFQQVEHISKGNNCLDAAKACNLDDTCKKYRSAYITPCTTSMSNEVCNRRKCHKALRQFFDKVPAKHSYGMLFCSCRDIACTERRRQTIVPVCSYEERERPNCLSLQDSCKTNYICRSRLADFFTNCQPESRSVSNCLKENYADCLLAYSGLIGTVMTPNYVDSSSLSVAPWCDCSNSGNDLEDCLKFLNFFKDNTCLKNAIQAFGNGSDVTMWQPAPPVQTTTATTTTAFRVKNKPLGPAGSENEIPTHVLPPCANLQAQKLKSNVSGSTHLCLSDSDFGKDGLAGASS
notes: extracellular domain; Construct described in Sanicola et al. 1997; also called rGFRα1-Ig
Regarding B1, the binding result is reported as “no binding”.
